Assay results as given in patent publication US20240358849A1 (SUZHOU FUSE BIOSCIENCES, published 2024).
Values belong to the binder of their own block, whether it stands above or below them.

Key:
[1] = biological target: T1, human Fibroblast Activation Protein (FAP), soluble antigen (human, UniProt Q12884 26-760, biotinylated when immobilized on streptavidin sensors); test: BLI, small-scale crude lysate
T1 construct: also called hFAP; biotinylated FAP

[2] = biological target: T1, human Fibroblast Activation Protein …; test: not stated (legend of FIG. 13A)
[3] = biological target: T1, human Fibroblast Activation Protein …; test: BLI; Table 11, antibody variants (Fab/scFv)
[4] = biological target: T2, human interleukin-2 (IL-2), wild type (human, UniProt P60568 21-153, biotinylated when immobilized); test: BLI; Table 11 (N.B. = no detectable binding)
T2 construct: also called biotinylated IL-2; IL2 WT

[5] = biological target: T1, human Fibroblast Activation Protein …; test: BLI (Gator), biotinylated FAP on streptavidin sensor
[6] = biological target: T1, human Fibroblast Activation Protein …; test: BLI per 6.1.3, human FAP;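 also: biolayer interferometry with immobilized antigen on sensors, antibody association up to 240 s then dissociation up to 420 s, reference-subtracted, global 1:1 fit with unlinked Rmax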
[7] = biological target: T3, human FAP expressed on cells (HEK 293T-hFAP-E5; ExpiCHO-hFAP) (human, UniProt Q12884 1-760); test: flow cytometry, 1 µg/mL antibody
T3 construct: hFAP expression vector Sino Biologics HG10464-UT; also called hFAP expressing cells

[8] = biological target: human FAP expressed on cells (HEK 293T-hFAP-E5; ExpiCHO-hFAP) (human) (UniProt Q12884); test: cell-based or functional assay

T2 sequence (P60568 21-153): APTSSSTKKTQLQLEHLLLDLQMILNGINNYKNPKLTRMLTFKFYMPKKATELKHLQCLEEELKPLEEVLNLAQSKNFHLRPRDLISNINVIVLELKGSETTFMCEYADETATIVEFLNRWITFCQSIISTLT

B3: anti-FAP antibody 872-70 (antibody, V domains shown)
VH: EVQLVESGGGLVQPGGSLRLSCAASGFTFSRYSMSWVRQAPGKGLEWVSYITSTDGTTDYADSVKGRFTISRDNSKNTLYLQMNSLRAEDTAVYYCARSQYGRYYSPDYYFDYWGQGTLVTVSS
VL: DIQMTQSPSSLSASVGDRVTITCRASQSISSYLNWYQQKPGKAPKLLIYAASSLQSGVPSRFSGSGSGTDFTLTISSLQPEDFATYYCQQSRTSPYTFGQGTKVEIKR
notes: also called IgG 70; FAP70
Kd [3]: < 1 nM
binding result [4]: no binding
Kd [5]: < 1 nM
kon [5]: 110000 M⁻¹ s⁻¹

B4: D029VH T30R:S55L/LV2 (bispecific antibody, V domains shown)
VH: EVQLVESGGGLVQPGGSLRLSCAASGFTFRWSFMSWVRQAPGKGLEWVSWIGPSGLYTDYADSVKGRFTISRDNSKNTLYLQMNSLRAEDTAVYYCARSQYGRYYSPDYYFDYWGQGTLVTVSS
VL: DIQMTQSPSSLSASVGDRVTITCRASGALGFYLNWYQQKPGKAPKLLIYAASSLSSGVPSRFSGSGSGTDFTLTISSLQPEDFATYYCQQGRTYPFTFGQGTKVEIKR
notes: also called Rev1:Q27G:P94Y:L96F/S55L:T30R
Kd [1]: ~100 nM

B6: D029-HV1LV2 (bispecific antibody, V domains shown)
VH: EVQLVESGGGLVQPGGSLRLSCAASGFTFTWSFMSWVRQAPGKGLEWVSWIGPSGLYTDYADSVKGRFTISRDNSKNTLYLQMNSLRAEDTAVYYCARSQYGRYYSPDYYFDYWGQGTLVTVSS
VL: DIQMTQSPSSLSASVGDRVTITCRASGALGFYLNWYQQKPGKAPKLLIYAASSLSSGVPSRFSGSGSGTDFTLTISSLQPEDFATYYCQQGRTYPFTFGQGTKVEIKR
notes: also called Rev1:Q27G:P94Y:L96F/S55L; D029HVILV2 (so in the source)
Kd [1]: ~100 nM

B8: anti-FAP antibody 872-5 (antibody, V domains shown)
VH: EVQLVESGGGLVQPGGSLRLSCAASGFTFRGYIMSWVRQAPGKGLEWVSWISPEGSRTGYADSVKGRFTISRDNSKNTLYLQMNSLRAEDTAVYYCARLQYGTWFDYWGQGTLVTVSS
VL: DIQMTQSPSSLSASVGDRVTITCRASQSISSYLNWYQQKPGKAPKLLIYAASSLQSGVPSRFSGSGSGTDFTLTISSLQPEDFATYYCQQATLLLPTFGQGTKVEIKR
notes: monovalent Fab-Fc (knob-in-hole) for KD per 6.1.3; also called IgG 5; FAP5
Kd [6]: 7.3 nM
koff [6]: 0.00201 s⁻¹
kon [6]: 277000 M⁻¹ s⁻¹
Kd [3]: 7 nM
binding result [4]: no binding
Kd [5]: 6.6 nM
koff [5]: 0.0028 s⁻¹
kon [5]: 420000 M⁻¹ s⁻¹

B10: anti-FAP antibody 872-59 (antibody, V domains shown)
VH: EVQLVESGGGLVQPGGSLRLSCAASGFTFTSYAMSWVRQAPGKGLEWVSSIYSWYGTTSYADSVKGRFTISRDNSKNTLYLQMNSLRAEDTAVYYCARTISYSQYAYGYSFDYWGQGTLVTVSS
VL: DIQMTQSPSSLSASVGDRVTITCRASQSISSYLNWYQQKPGKAPKLLIYAASSLQSGVPSRFSGSGSGTDFTLTISSLQPEDFATYYCQQAFTSPRTFGQGTKVEIKR
notes: also called IgG 59; FAP59
Kd [3]: 16 nM
binding result [4]: no binding
Kd [5]: 15.5 nM
koff [5]: 0.0056 s⁻¹
kon [5]: 360000 M⁻¹ s⁻¹

B11: two-in-one antibody D049 (bispecific antibody, V domains shown)
VH: EVQLVESGGGLVQPGGSLRLSCAASGFTFFSYWMSWVRQAPGKGLEWVSTISPYDSSTAYADSVKGRFTISRDNSKNTLYLQMNSLRAEDTAVYYCARLLYGTWFDYWGQGTLVTVSS
VL: DIQMTQSPSSLSASVGDRVTITCRASQIVRTYLNWYQQKPGKAPKLLIYAASSLQSGVPSRFSGSGSGTDFTLTISSLQPEDFATYYCQQGAQLQPTFGQGTKVEIKR
binding result [7]: binds

B12: scFv5, scFv derived from antibody 872-5 (scFv, V domains shown)
VH: EVQLVESGGGLVQPGGSLRLSCAASGFTFRGYIMSWVRQAPGKGLEWVSWISPEGSRTGYADSVKGRFTISRDNSKNTLYLQMNSLRAEDTAVYYCARLQYGTWFDYWGQGTLVTVSS
VL: DIQMTQSPSSLSASVGDRVTITCRASQSISSYLNWYQQKPGKAPKLLIYAASSLQSGVPSRFSGSGSGTDFTLTISSLQPEDFATYYCQQATLLLPTFGQGTKVEIKR
notes: Single chain; also called scFv872-5
Kd [2]: ~5 nM

B13: immunoconjugate of configuration 3 with IL-2 polypeptide, D002 Fab and 872-70 scFv (Fc fusion, part only; not given: CH1, Fc subunits, linkers, part only)
chain, part: EVQLVESGGGLVQPGGSLRLSCAASGFTFSRYSMSWVRQAPGKGLEWVSYITSTDGTTDYADSVKGRFTISRDNSKNTLYLQMNSLRAEDTAVYYCARSQYGRYYSPDYYFDYWGQGTLVTVSSDIQMTQSPSSLSASVGDRVTITCRASQSISSYLNWYQQKPGKAPKLLIYAASSLQSGVPSRFSGSGSGTDFTLTISSLQPEDFATYYCQQSRTSPYTFGQGTKVEIKRTVAPASSSTKKTQLQLEHLLLDLQMILNGINNYKNPKLTRMLTAKFAMPKKATELKHLQCLEEELKPLEEVLNGAQSKNFHLRPRDLISNINVIVLELKGSETTFMCEYADETATIVEFLNRWITFSQSIISTLT
heavy, part: EVQLVESGGGLVQPGGSLRLSCAASGFTFSRYSMSWVRQAPGKGLEWVSDISSYSTTYYADSVKGRFTISRDNSKNTLYLQMNSLRAEDTAVYYCARSQYGRYYSPDYYFDYWGQGTLVTVSS
light, part: DIQMTQSPSSLSASVGDRVTITCRASQSIGNSLNWYQQKPGKAPKLLIYAASSLQSGVPSRFSGSGSGTDFTLTISSLQPEDFATYYCQQGRRSPFTFGQGTKVEIKRTVA
enhancement of EC50, HEK-Blue IL-2 reporter, with FAP-expressing cells [8]: < 200 fold

B14: immunoconjugate of configuration 3 with IL-2 polypeptide, D002 Fab and 872-5 scFv (Fc fusion, part only; not given: CH1, Fc subunits, linkers, part only)
chain, part: EVQLVESGGGLVQPGGSLRLSCAASGFTFRGYIMSWVRQAPGKGLEWVSWISPEGSRTGYADSVKGRFTISRDNSKNTLYLQMNSLRAEDTAVYYCARLQYGTWFDYWGQGTLVTVSSDIQMTQSPSSLSASVGDRVTITCRASQSISSYLNWYQQKPGKAPKLLIYAASSLQSGVPSRFSGSGSGTDFTLTISSLQPEDFATYYCQQATLLLPTFGQGTKVEIKRTVAPASSSTKKTQLQLEHLLLDLQMILNGINNYKNPKLTRMLTAKFAMPKKATELKHLQCLEEELKPLEEVLNGAQSKNFHLRPRDLISNINVIVLELKGSETTFMCEYADETATIVEFLNRWITFSQSIISTLT
heavy, part: EVQLVESGGGLVQPGGSLRLSCAASGFTFSRYSMSWVRQAPGKGLEWVSDISSYSTTYYADSVKGRFTISRDNSKNTLYLQMNSLRAEDTAVYYCARSQYGRYYSPDYYFDYWGQGTLVTVSS
light, part: DIQMTQSPSSLSASVGDRVTITCRASQSIGNSLNWYQQKPGKAPKLLIYAASSLQSGVPSRFSGSGSGTDFTLTISSLQPEDFATYYCQQGRRSPFTFGQGTKVEIKRTVA
enhancement of EC50, HEK-Blue IL-2 reporter, with FAP-expressing cells [8]: < 200 fold

The next lines start with the values.

Kd [1]: ~100 nM
B1: D029 VH-S55L:T30R (bispecific antibody, V domains shown)
VH: EVQLVESGGGLVQPGGSLRLSCAASGFTFRWSFMSWVRQAPGKGLEWVSWIGPSGLYTDYADSVKGRFTISRDNSKNTLYLQMNSLRAEDTAVYYCARSQYGRYYSPDYYFDYWGQGTLVTVSS
VL: DIQMTQSPSSLSASVGDRVTITCRASQDGGNYLNWYQQKPGKAPKLLIYGASTLYSGVPSRFSGSGSGTDFTLTISSLQPEDFATYYCQQGRTPPLTFGQGTKVEIKR

Kd [2]: ~1 nM
B2: scFv70, scFv derived from antibody 872-70 (scFv, V domains shown)
VH: EVQLVESGGGLVQPGGSLRLSCAASGFTFSRYSMSWVRQAPGKGLEWVSYITSTDGTTDYADSVKGRFTISRDNSKNTLYLQMNSLRAEDTAVYYCARSQYGRYYSPDYYFDYWGQGTLVTVSS
VL: DIQMTQSPSSLSASVGDRVTITCRASQSISSYLNWYQQKPGKAPKLLIYAASSLQSGVPSRFSGSGSGTDFTLTISSLQPEDFATYYCQQSRTSPYTFGQGTKVEIKR
notes: Single chain; also called scFv872-70

Kd [1]: ~100 nM
B5: D029-HV1LV4 (bispecific antibody, V domains shown)
VH: EVQLVESGGGLVQPGGSLRLSCAASGFTFTWSFMSWVRQAPGKGLEWVSWIGPSGLYTDYADSVKGRFTISRDNSKNTLYLQMNSLRAEDTAVYYCARSQYGRYYSPDYYFDYWGQGTLVTVSS
VL: DIQMTQSPSSLSASVGDRVTITCRASGALGFYLNWYQQKPGKAPKLLIYAASSLSSGVPSRFSGSGSGTDFTLTISSLQPEDFATYYCQQGRTYPLTFGQGTKVEIKR
notes: also called Rev1:Q27G:P94Y/S55L; D029HVILV4 (so in the source)

Kd [1]: ~100 nM
B7: D029VH T30R:S55L/LV4 (bispecific antibody, V domains shown)
VH: EVQLVESGGGLVQPGGSLRLSCAASGFTFRWSFMSWVRQAPGKGLEWVSWIGPSGLYTDYADSVKGRFTISRDNSKNTLYLQMNSLRAEDTAVYYCARSQYGRYYSPDYYFDYWGQGTLVTVSS
VL: DIQMTQSPSSLSASVGDRVTITCRASGALGFYLNWYQQKPGKAPKLLIYAASSLSSGVPSRFSGSGSGTDFTLTISSLQPEDFATYYCQQGRTYPLTFGQGTKVEIKR
notes: also called Rev1:Q27G:P94Y/S55L:T30R

binding result [7]: binds
B9: antibody D003 (antibody, V domains shown)
VH: EVQLVESGGGLVQPGGSLRLSCAASGFTFYTYIMSWVRQAPGKGLEWVSSIGPSYGDTIYADSVKGRFTISRDNSKNTLYLQMNSLRAEDTAVYYCARTISYSQYAYGYSFDYWGQGTLVTVSS
VL: DIQMTQSPSSLSASVGDRVTITCRASQSISSYLNWYQQKPGKAPKLLIYAASSLQSGVPSRFSGSGSGTDFTLTISSLQPEDFATYYCQQTRSYLPTFGQGTKVEIKR
